Measurements taken from patent US7662384B2, “Use of anti-α5β1 antibodies to inhibit cancer cell proliferation” (Facet Biotech Corporation, priority 2004, dated 2010).
Blank lines part the entries; values can stand above or below the molecule they belong to.

Tests used:
[1] = test system: LOX cells; assay: LOX orthotopic xenograft in SCID mice; format: in vivo; details: 10 mg/kg intraperitoneally, 3 times/week for 3 weeks
Method: (§1) NW231 and LOX cells were grown as orthotopic xenografts in SCID mice and challenged with the anti-α5β1 antibodies M200 and IIA1 by intraperitoneal injection.
(§2) Immune compromised mice CB-17 SCID (strain C.B-Igh1/IcrTac-Prkdc) were obtained from Taconic Farms (Germantown, N.Y.). Studies were initiated using female mice between the ages of 6-10 weeks (˜20 grams in weight). Animals were pre-dosed with M200, IIA1 or control IgG intraperitoneally at a dose of 10 mg/kg 1 hour prior to NW231 inoculation (1×10^7 cells in IMDM) into the mammary fat pad. Dosing continued for 3 weeks at a frequency of 3 times/week at 10 mg/kg. Tumor volume was measured twice weekly by caliper and calculated by π/6×length×width×height. Clinical and mortality observations were performed daily according to IACUC regulations.

[2] = target: T1, α5β1 integrin on the cell surface of COLO 357 (Homo sapiens, UniProt P05556+P08648); assay: FACS analysis of cancer cell line with IIA1; format: binding; details: COLO 357 (pancreas); IIA1 10 μg/ml; background MFI ~5
T1 construct: endogenous in cells
Method: (§3) Cells were removed with 5 mM EDTA in Tris-HCl (pH 8.0) and blocked by centrifugation in Hank's balanced salt solution containing 3% heat inactivated FBS, 1% normal goat serum (Sigma) and 1% BSA at 4° C. for 5 minutes. Cells were incubated for 30-60 minutes at 4° C. with the mouse anti-α5β1 antibody, IIA1 (10 μg/ml) in FACS buffer (PBS containing 0.1% BSA). Excess monoclonal antibody was removed by centrifugation and cells were washed two times with FACS buffer prior to resuspending in PE-anti-mouse IgG (H+ L) antibody (Southern Biotech, 1:400 dilution) for 30-60 minutes at 4° C. After washing cells were re-suspended in FACS buffer containing propidium iodide (1 μg/ml). Mean fluorescence intensity (MFI) was measured on a FACSCalibur (Becton Dickinson). Background MFI was ˜5.

[3] = target: T2, α5β1 integrin on the cell surface of 786-0 (Homo sapiens, UniProt P05556+P08648); assay: FACS analysis of cancer cell line with IIA1; format: binding; details: 786-0 (renal); IIA1 10 μg/ml; background MFI ~5
T2 construct: endogenous in cells
Method: as §3

[4] = target: T3, α5β1 integrin on the cell surface of LOX (Homo sapiens, UniProt P05556+P08648); assay: FACS analysis of cancer cell line with IIA1; format: binding; details: LOX (melanoma); IIA1 10 μg/ml; background MFI ~5
T3 construct: endogenous in cells
Method: as §3

[5] = target: T4, α5β1 integrin on the cell surface of SN12C (Homo sapiens, UniProt P05556+P08648); assay: FACS analysis of cancer cell line with IIA1; format: binding; details: SN12C (renal); IIA1 10 μg/ml; background MFI ~5
T4 construct: endogenous in cells
Method: as §3

[6] = target: T5, α5β1 integrin on the cell surface of C8161 (Homo sapiens, UniProt P05556+P08648); assay: FACS analysis of cancer cell line with IIA1; format: binding; details: C8161 (melanoma); IIA1 10 μg/ml; background MFI ~5
T5 construct: endogenous in cells
Method: as §3

[7] = target: T6, α5β1 integrin on the cell surface of A549 (Homo sapiens, UniProt P05556+P08648); assay: FACS analysis of cancer cell line with IIA1; format: binding; details: A549 (lung); IIA1 10 μg/ml; background MFI ~5
T6 construct: endogenous in cells
Method: as §3

[8] = target: T7, α5β1 integrin on the cell surface of HT1376 (Homo sapiens, UniProt P05556+P08648); assay: FACS analysis of cancer cell line with IIA1; format: binding; details: HT1376 (bladder); IIA1 10 μg/ml; background MFI ~5
T7 construct: endogenous in cells
Method: as §3

[9] = target: T8, α5β1 integrin on the cell surface of TK-10 (Homo sapiens, UniProt P05556+P08648); assay: FACS analysis of cancer cell line with IIA1; format: binding; details: TK-10 (renal); IIA1 10 μg/ml; background MFI ~5
T8 construct: endogenous in cells
Method: as §3

[10] = target: T9, α5β1 integrin on the cell surface of MIA PACA-2 (Homo sapiens, UniProt P05556+P08648); assay: FACS analysis of cancer cell line with IIA1; format: binding; details: MIA PACA-2 (pancreas); IIA1 10 μg/ml; background MFI ~5
T9 construct: endogenous in cells
Method: as §3

[11] = target: T10, α5β1 integrin on the cell surface of HT1080 (Homo sapiens, UniProt P05556+P08648); assay: FACS analysis of cancer cell line with IIA1; format: binding; details: HT1080 (fibrosarcoma); IIA1 10 μg/ml; background MFI ~5
T10 construct: endogenous in cells
Method: as §3

[12] = target: T11, α5β1 integrin on the cell surface of C32 (Homo sapiens, UniProt P05556+P08648); assay: FACS analysis of cancer cell line with IIA1; format: binding; details: C32 (melanoma); IIA1 10 μg/ml; background MFI ~5
T11 construct: endogenous in cells
Method: as §3

[13] = target: T12, α5β1 integrin on the cell surface of CHL-1 (Homo sapiens, UniProt P05556+P08648); assay: FACS analysis of cancer cell line with IIA1; format: binding; details: CHL-1 (melanoma); IIA1 10 μg/ml; background MFI ~5
T12 construct: endogenous in cells
Method: as §3

[14] = test system: VX2 cancer cells; assay: SCID mouse VX2 xenograft model; format: in vivo; details: SCID mice; 10 mg/kg intraperitoneally, 3 times/week for 3 weeks
Method: as §2, with “M200, IIA1,” for “M200, IIA1”, “mg/kg one” for “mg/kg 1”, “to VX2” for “to NW231”, “in Iscove's Modified Dulbecco's Medium)” for “in IMDM)”, “Dosing was” for “Dosing”

[15] = target: mouse α5β1 integrin (Mus musculus, UniProt P09055+P11688); assay: species cross-reactivity of anti-α5β1 antibody; format: binding
[16] = test system: NW231 cells; assay: NW231 orthotopic xenograft in SCID mice; format: in vivo; details: 10 mg/kg intraperitoneally, 3 times/week for 3 weeks
Method: as §1, §2

[17] = test system: LOX; assay: M200 in vitro cell proliferation assay; format: cell-based; details: LOX (melanoma)
Method: Cancer cell lines were plated at a density of 2500 cells/well in 96-well plates in IMDM with supplements in the presence or absence of 10% FBS. At the time of plating, cells were challenged with various concentrations M200 or a non-function blocking anti-α5 antibody, VC5. […] All growth studies were done at least 3 times in triplicate.

Chain of mouse α5β1 integrin (P11688 45-1053): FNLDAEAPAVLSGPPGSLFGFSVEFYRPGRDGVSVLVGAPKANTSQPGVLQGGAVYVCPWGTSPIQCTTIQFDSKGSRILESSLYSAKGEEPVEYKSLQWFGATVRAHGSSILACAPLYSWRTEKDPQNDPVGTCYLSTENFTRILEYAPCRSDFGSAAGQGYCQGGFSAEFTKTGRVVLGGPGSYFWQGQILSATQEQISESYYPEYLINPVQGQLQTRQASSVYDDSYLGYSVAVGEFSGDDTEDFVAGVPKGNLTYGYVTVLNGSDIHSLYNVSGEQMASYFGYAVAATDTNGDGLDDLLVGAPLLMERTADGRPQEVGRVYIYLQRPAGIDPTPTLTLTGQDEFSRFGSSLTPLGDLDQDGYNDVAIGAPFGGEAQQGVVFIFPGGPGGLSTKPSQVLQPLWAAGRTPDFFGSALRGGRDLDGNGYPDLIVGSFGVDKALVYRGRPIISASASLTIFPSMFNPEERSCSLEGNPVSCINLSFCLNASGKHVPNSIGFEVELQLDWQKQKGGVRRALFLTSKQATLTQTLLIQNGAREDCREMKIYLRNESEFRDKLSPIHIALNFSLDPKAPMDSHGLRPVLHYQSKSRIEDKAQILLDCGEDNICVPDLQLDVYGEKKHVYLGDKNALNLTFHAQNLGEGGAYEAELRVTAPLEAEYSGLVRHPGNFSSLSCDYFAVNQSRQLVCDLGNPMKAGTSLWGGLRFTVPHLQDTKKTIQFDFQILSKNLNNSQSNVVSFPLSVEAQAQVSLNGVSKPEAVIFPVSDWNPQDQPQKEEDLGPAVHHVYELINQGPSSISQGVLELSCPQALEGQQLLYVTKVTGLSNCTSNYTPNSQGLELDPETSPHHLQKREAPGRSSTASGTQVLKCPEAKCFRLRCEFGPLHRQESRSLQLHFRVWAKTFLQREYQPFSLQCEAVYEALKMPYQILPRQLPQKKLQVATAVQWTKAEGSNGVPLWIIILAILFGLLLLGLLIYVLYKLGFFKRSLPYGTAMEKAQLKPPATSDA
Chain of mouse α5β1 integrin (P09055 21-798): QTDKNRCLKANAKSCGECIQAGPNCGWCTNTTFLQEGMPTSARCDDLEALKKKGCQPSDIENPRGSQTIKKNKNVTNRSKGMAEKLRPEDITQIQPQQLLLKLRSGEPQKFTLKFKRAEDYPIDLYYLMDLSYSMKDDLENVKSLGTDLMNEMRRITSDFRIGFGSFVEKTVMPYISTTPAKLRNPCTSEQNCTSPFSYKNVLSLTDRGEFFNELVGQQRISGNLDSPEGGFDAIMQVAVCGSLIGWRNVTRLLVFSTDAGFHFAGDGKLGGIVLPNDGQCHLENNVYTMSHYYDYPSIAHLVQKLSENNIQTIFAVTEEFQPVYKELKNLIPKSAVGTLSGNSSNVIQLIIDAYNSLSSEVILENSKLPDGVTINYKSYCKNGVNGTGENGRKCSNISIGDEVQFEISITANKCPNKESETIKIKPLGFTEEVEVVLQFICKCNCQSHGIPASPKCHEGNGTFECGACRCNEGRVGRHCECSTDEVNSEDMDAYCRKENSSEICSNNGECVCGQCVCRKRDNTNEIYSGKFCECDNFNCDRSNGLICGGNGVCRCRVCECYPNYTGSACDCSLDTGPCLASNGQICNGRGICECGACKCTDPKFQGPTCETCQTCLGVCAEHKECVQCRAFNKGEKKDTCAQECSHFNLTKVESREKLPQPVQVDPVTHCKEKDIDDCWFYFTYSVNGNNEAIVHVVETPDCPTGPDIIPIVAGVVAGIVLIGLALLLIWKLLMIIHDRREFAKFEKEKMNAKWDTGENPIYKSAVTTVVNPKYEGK
T8 sequence (P08648 42-894 limits assumed): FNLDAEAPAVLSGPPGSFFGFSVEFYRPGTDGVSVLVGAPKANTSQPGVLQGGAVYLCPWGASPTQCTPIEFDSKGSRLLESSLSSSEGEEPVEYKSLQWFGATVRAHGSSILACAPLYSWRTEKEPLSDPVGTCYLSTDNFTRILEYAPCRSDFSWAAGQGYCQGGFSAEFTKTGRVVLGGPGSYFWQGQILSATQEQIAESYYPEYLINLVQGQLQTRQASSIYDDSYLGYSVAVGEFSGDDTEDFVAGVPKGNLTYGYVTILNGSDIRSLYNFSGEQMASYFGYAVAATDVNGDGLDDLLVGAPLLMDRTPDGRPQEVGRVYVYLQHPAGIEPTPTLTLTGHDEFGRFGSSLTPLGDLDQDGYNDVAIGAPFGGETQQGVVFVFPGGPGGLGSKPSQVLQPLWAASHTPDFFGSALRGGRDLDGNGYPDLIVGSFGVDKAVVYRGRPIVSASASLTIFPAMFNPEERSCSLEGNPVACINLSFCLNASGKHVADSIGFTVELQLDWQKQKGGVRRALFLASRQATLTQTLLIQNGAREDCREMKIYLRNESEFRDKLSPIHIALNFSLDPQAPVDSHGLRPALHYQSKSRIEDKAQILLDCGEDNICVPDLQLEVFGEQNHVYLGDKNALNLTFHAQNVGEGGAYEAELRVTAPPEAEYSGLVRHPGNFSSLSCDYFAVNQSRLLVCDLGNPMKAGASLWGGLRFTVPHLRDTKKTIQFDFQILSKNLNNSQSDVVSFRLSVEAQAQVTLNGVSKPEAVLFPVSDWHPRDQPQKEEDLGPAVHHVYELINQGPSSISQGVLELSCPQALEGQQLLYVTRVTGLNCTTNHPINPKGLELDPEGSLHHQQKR
T8 sequence (P08648 895-1049 limits assumed): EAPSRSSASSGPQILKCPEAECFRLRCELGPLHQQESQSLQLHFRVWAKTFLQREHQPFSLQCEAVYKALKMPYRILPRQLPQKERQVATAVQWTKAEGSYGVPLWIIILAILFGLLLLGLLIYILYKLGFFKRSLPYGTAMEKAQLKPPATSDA
T8 sequence (P05556 21-798): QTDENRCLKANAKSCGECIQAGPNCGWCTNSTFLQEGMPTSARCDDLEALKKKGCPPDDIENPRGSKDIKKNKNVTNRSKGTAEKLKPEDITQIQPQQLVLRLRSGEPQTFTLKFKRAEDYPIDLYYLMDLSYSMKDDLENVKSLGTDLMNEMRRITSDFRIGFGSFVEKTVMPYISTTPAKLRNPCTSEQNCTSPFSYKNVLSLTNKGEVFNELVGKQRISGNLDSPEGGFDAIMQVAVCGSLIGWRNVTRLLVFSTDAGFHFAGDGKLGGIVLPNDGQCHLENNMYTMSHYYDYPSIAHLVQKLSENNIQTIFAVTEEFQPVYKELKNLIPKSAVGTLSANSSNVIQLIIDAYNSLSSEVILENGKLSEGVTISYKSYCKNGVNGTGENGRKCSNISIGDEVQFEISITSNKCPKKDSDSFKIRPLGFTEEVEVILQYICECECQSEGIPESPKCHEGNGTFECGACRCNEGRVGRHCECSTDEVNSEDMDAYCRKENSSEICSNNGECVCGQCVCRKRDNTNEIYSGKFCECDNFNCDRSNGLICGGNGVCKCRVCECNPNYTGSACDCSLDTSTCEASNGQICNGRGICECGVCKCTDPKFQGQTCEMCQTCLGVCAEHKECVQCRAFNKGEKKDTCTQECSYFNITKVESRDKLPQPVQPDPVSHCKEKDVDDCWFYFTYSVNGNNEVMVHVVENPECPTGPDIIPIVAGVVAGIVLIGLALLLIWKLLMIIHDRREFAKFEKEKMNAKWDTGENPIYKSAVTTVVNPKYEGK

α5β1 Surface Expression (MFI) [2]: 7.8 MFI
α5β1 Surface Expression (MFI) [3]: 144.4 MFI
α5β1 Surface Expression (MFI) [4]: 261.6 MFI
α5β1 Surface Expression (MFI) [5]: 129.1 MFI
α5β1 Surface Expression (MFI) [6]: 122 MFI
α5β1 Surface Expression (MFI) [7]: 71.41 MFI
α5β1 Surface Expression (MFI) [8]: 111.9 MFI
α5β1 Surface Expression (MFI) [9]: 36.6 MFI
α5β1 Surface Expression (MFI) [10]: 61.9 MFI
α5β1 Surface Expression (MFI) [11]: 421.7 MFI
α5β1 Surface Expression (MFI) [12]: 5.7 MFI
α5β1 Surface Expression (MFI) [13]: 6.8 MFI
recognition of mouse α5β1 integrin [15]: does not recognize
B1: IIA1: parent mouse IgG1 class anti-α5β1 antibody shown to inhibit α5β1 integrin binding to fibronectin (antibody, V domains shown)
VH: MAVLGLLLCLVTFPSCVLSQVQLKESGPGLVAPSQSLSITCTISGFSLTDYGVHWVRQPPGKGLEWLVVIWSDGSSTYNSALKSRMTIRKDNSKSQVFLIMNSLQTDDSAMYYCARHGTYYGMTTTGDALDYWGQGTSVTVSS
VL: MDFQVQIFSFLLISASVIMSRGQIVLTQSPAIMSASLGERVTMTCTASSSVSSNYLHWYQQKPGSAPNLWIYSTSNLASGVPARFSGSGSGTSYSLTISSMEAEDAATYYCHQYLRSPPTFGGGTKLEIK
modifications: mus muscalus
LOX xenograft tumor growth [1]: reproducibly inhibit
VX2 xenograft tumor growth versus control IgG [14]: did not correlate with a decreased rate of VX2 tumor growth
NW231 xenograft tumor growth [16]: reproducibly inhibit

B2: M200: chimeric IgG4 anti-α5β1 antibody derived from IIA1; generic name volociximab (antibody, V domains shown)
VH: B1 VH
VL: MDFQVQIFSFLLISASVIMSRGQIVLTQSPAIMSASLGERVTMTCTASSSVSSNYLHWYQQKPGSAPNLWIYSTSNLASGVPARFSGSGSGTSYSLTISSMEAEDAATYYCHQYLRSPPTFGGGTKLEIKDMSVDMSV
modifications: chimeric antibody
notes: chimeric IgG4 anti-α5β1 antibody derived from IIA1; generic name volociximab
LOX xenograft tumor growth [1]: not found to reproducibly inhibit tumor growth
VX2 xenograft tumor growth versus control IgG [14]: did not correlate with a decreased rate of VX2 tumor growth
recognition of mouse α5β1 integrin [15]: does not cross react
NW231 xenograft tumor growth [16]: not found to reproducibly inhibit tumor growth
% Growth Inhibition +Serum ([17]; 10% FBS, 4-day assay): 35%
% Growth Inhibition −Serum ([17]; absence of serum, 2-day rather than 4-day assay): 40^2%
